Experimental data: article PMC9722607 (Structure (London, England : 1993), 2022)

B1: 6x-His-tagged PqsE (wild type) (enzyme)
chain: MLRLSAPGQLDDDLCLLGDVQVPVFLLRLGEASWALVEGGISRDAELVWADLCRWVADPSQVHYWLITHKHYDHCGLLPYLCPRLPNVQVLASERTCQAWKSESAVRVVERLNRQLLRAEQRLPEACAWDALPVRAVADGEWLELGPRHRLQVIEAHGHSDDHVVFYDVRRRRLFCGDALGEFDEAEGVWRPLVFDDMEAYLESLERLQRLPTLLQLIPGHGGLLRGRLAADGAESAYTECLRLCRRLLWRQSMGESLDELSEELHRAWGGQSVDFLPGELHLGSMRRMLEILSRQALPLD

Tests used:
[1] = biological target: the molecule itself; assay: cryo-EM structure
[2] = biological target: B1; assay: pull-down

| Binder | stoichiometry N [1] | efficacy of binding relative to WT RhlR [2] [%] |
| --- | --- | --- |
| RhlR (wild type, untagged, bound to mBTL) (natural protein) MRNDGGFLLWWDGLRSEMQPIHDSQGVFAVLEKEVRRLGFDYYAYGVRHTIPFTRPKTEVHGTYPKAWLERYQMQNYGAVDPAILNGLRSSEMVVWSDSLFDQSRMLWNEARDWGLCVGATLPIRAPNNLLSVLSVARDQQNISSFEREEIRLRLRCMIELLTQKLTDLEHPMLMSNPVCLSHREREILQWTADGKSSGEIAIILSISESTVNFHHKNIQKKFDAPNKTLAAAYAAALGLI | 2 | – |
| B1 | 2 | – |
| RhlR F53A (natural protein) MRNDGGFLLWWDGLRSEMQPIHDSQGVFAVLEKEVRRLGFDYYAYGVRHTIPATRPKTEVHGTYPKAWLERYQMQNYGAVDPAILNGLRSSEMVVWSDSLFDQSRMLWNEARDWGLCVGATLPIRAPNNLLSVLSVARDQQNISSFEREEIRLRLRCMIELLTQKLTDLEHPMLMSNPVCLSHREREILQWTADGKSSGEIAIILSISESTVNFHHKNIQKKFDAPNKTLAAAYAAALGLI | – | 50 |
| RhlR C157S (natural protein) MRNDGGFLLWWDGLRSEMQPIHDSQGVFAVLEKEVRRLGFDYYAYGVRHTIPFTRPKTEVHGTYPKAWLERYQMQNYGAVDPAILNGLRSSEMVVWSDSLFDQSRMLWNEARDWGLCVGATLPIRAPNNLLSVLSVARDQQNISSFEREEIRLRLRSMIELLTQKLTDLEHPMLMSNPVCLSHREREILQWTADGKSSGEIAIILSISESTVNFHHKNIQKKFDAPNKTLAAAYAAALGLI | – | 70 |
